Experimental data reported in patent CN110577600A (SHANGHAI INST MATERIA MEDICA CAS; NANJING LEADS BIOLABS …, dated 2019).

Molecular target: T1, 重组人GPC3蛋白 (human, UniProt P51654 25-559, limits assumed)
T1 construct: also called 磷脂酰肌醇聚糖蛋白3
Assay: SPR, Biacore X100; antibody captured on goat anti-human Fc gamma CM5 chip, human GPC3 10nM-80nM as analyte, 1:1 Langmuir model

T1 sequence (P51654 25-559 limits assumed): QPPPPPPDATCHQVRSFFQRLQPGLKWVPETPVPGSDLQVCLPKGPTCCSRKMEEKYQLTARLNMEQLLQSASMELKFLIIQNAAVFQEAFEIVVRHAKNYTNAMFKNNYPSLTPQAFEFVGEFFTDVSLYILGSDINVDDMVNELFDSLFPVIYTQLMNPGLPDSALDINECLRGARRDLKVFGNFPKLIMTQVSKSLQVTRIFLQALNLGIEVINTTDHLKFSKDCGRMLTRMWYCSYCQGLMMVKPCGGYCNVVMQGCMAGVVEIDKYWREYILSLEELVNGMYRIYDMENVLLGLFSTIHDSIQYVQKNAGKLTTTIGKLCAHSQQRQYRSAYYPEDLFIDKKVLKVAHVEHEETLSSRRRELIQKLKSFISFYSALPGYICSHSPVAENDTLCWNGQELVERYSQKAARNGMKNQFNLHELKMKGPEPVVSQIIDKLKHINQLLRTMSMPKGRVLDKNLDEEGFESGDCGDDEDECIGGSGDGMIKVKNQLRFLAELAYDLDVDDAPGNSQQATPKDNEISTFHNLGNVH

B1: 抗体GPC3-6 (antibody, human IgG1, lambda, V domains shown)
VH: QVHLVQSGAEVQKPGSSVKVSCKASGGTFSSYGINWVRQAPGQGLEWMGWISAYNGNTNYAQKLQGRVTMTTDTSTSTAYMELRSLRSDDTAVYYCARGSGLLPRIGGYWGKGTMVTVSS
VL: LSSELTQDPAVSVPLGQTVRITCRGDSLRTFYATWYQQKPGQAPVRVIYRKNNRPSGIPDRFSGSSSGNTASLTITGAQAEDEADYYCNSRDSSGDHLVFGTGTKLTVLG
notes: Selected from a phage display antibody library against GPC3; In SPR it was captured through goat anti-human Fc gamma; also called 人抗GPC3抗体GPC3-6; 抗GPC3抗体
- Kd: 3.77 nM
- koff: 0.000719 s⁻¹
- kon: 190000 M⁻¹ s⁻¹
